Results from patent US20210024635A1 (IMMATICS BIOTECHNOLOGIES, published 2021).

Experiments:
[1] = biological target: T1, WT1 RMF peptide/HLA-A0201 complex (isolated, recombinant, biotinylated) (human); assay: ELISA on Neutravidin plates, IgG; '++' = EC50 below 10 nM, '+' = EC50 of more than 10 nM
[2] = biological target: T1, WT1 RMF peptide/HLA-A0201 complex …; assay: ELISA on Neutravidin plates, IgG
[3] = biological target: T2, RMF/HLA complex on antigen-positive cancer cells (SET2, BV173) (human); assay: flow cytometry on SET2 cells, IgG; '++' = EC50 below 10 nM, '+' = EC50 of more than 10 nM
T2 construct: whole, on cells; Naturally presented complex on SET2 (DSMZ ACC 608) and BV173 (DSMZ ACC 20) cells; also called RMF/HLA complex on cells; WT1/HLA-expressing cells
Experimental: (§1) SET2 cells (DSMZ No. ACC 608) and BV173 cells (DSMZ No. ACC 20) were used as antigen-positive cancer cells (see Dao et al.; 2013). Binding was measured by flow cytometry utilizing a PE-conjugated goat anti-human IgG secondary antibody, and EC50 values were determined.
(§2) Example 4 was repeated with the antibodies of the present disclosure, i.e. binding to RNF/HLA-positive SET2 cells (DSMZ No. ACC 608) and BV173 cells (DSMZ No. ACC 20) was tested by flow cytometry. EC50 values were determined.

[4] = biological target: T3, PIGQ peptide/HLA-A0201 complex (human, biotinylated (site not stated)); assay: ELISA as in Example 3; biotinylated peptide/HLA complex coated at 50 nM on Neutravidin plates, IgG titrated, AP-conjugated goat anti-human IgG, RFU
T3 construct: Negative control / counter target complex; also called PIGQ/HLA; PIGQ/HLA complex

[5] = biological target: T1, WT1 RMF peptide/HLA-A0201 complex …; assay: as above
[6] = biological target: T2, RMF/HLA complex on antigen-positive …; assay: flow cytometry on BV173 cells, IgG; '++' = EC50 below 10 nM, '+' = EC50 of more than 10 nM
Experimental: as §1, §2

[7] = biological target: T4, WT1 RMF peptide/HLA-A0201 complex (isolated, recombinant, biotinylated) (human); assay: ELISA on Neutravidin plates, IgG; '++' = EC50 below 10 nM, '+' = EC50 of more than 10 nM
T4 construct: also called RMF/HLA; RMF/HLA complex

[8] = biological target: T4, WT1 RMF peptide/HLA-A0201 complex …; assay: ELISA on Neutravidin plates, IgG
[9] = biological target: T4, WT1 RMF peptide/HLA-A0201 complex …; assay: ELISA as in Example 3; biotinylated peptide/HLA complex coated at 50 nM on Neutravidin plates, IgG titrated, AP-conjugated goat anti-human IgG, RFU
[10] = biological target: T4, WT1 RMF peptide/HLA-A0201 complex …; assay: ELISA on Neutravidin plates, Fab; '++' = EC50 below 10 nM, '+' = EC50 of more than 10 nM
[11] = biological target: T4, WT1 RMF peptide/HLA-A0201 complex …; assay: ELISA on Neutravidin plates, Fab; EC50 compared with the best reference Fab (not named)
Experimental: The binders were subjected to an in-depth characterization. They were directly compared to the antibodies of the prior art in an ELISA assay using Neutravidin plates as described in Example 3. For selected reference antibodies and binders of the present invention, the EC50 were determined.
Furthermore, none of the binders of the present invention show any binding to the counter targets, in particular no binding to the PIGQ/HLA complex.

[12] = biological target: T3, PIGQ peptide/HLA-A0201 complex; assay: ELISA on Neutravidin plates, Fab; '---' = no binding
[13] = biological target: T4, WT1 RMF peptide/HLA-A0201 complex …; assay: Octet (BLI), IgG, apparent (bivalent) affinity; dissociation too slow for the limits of the system
Experimental: The apparent affinity of the binders Aali and Refmab #13 was measured for the RMF/HLA antigen with an Octet system. […] The binding of Aali was characterized by a very slow dissociation rate, which exceeded the specification limits that were set in the system.

[14] = biological target: T4, WT1 RMF peptide/HLA-A0201 complex …; assay: Octet (BLI), Fab, antigen immobilized to Streptavidin
Experimental: Affinities of the Fab fragments of binders Aali and Refmab #13 for the antigen RMF/HLA were also measured with an Octet system using the antigen immobilized to Streptavidin.

| Binder | EC50 [1] | EC50 [2] | EC50 [3] | binding result [4] | EC50 (read off the curve) [5] | EC50 [6] | EC50 [7] | EC50 [8] | EC50 (read off the curve) [9] | EC50 [10] | fold better EC50 than the best binder of the prior art [11] | binding result [12] | Kd [13] | Kd [14] |
| --- | --- | --- | --- | --- | --- | --- | --- | --- | --- | --- | --- | --- | --- | --- |
| Bibi (IgG1) (antibody, V domains shown) VH: EVQLVESGGGLVKPGGSLRLSCAASGFTFSSYSMNWVRQAPGKGLEWVSSISSSSSYIYYADSVKGRFTISRDNAKNSLYLQMNSLRAEDTAVYYCARTESVWHLGFDIWGQGTLVTVSS VL: DIQMTQSPSSVSASVGDRVTITCRASQGISSWLAWYQQKPGKAPKLLIYAASSLQSGVPSRFSGSGSGTDFTLTISSLQPEDFATYYCQQNHKYPITFGQGTKVEIKR | < 10 nM | < 1 nM | > 10 nM | no binding | ~0.3 nM | > 10 nM |  |  |  |  |  |  |  |  |
| Cyprus (IgG1) (antibody, V domains shown) VH: QVQLVESGGGLVKPGGSLRLSCAASGFTFSDYYMSWIRQAPGKGLEWVSYISSSGSTIYYADSVKGRFTISRDNAKNSLYLQMNSLRAEDTAVYYCARDGLRYFYGFDYWGQGTLVTVSS VL: QSVLTQPPSVSAAPGQKVTISCSGSSSNIGNNYVSWYQQLPGTAPKLLIYDNNKRPSGIPDRFSGSKSGTSATLGITGLQTEDEADYYCQAWVHYSLVHWVFGGGTKLTVLG |  |  | > 10 nM | no binding |  | > 10 nM | < 10 nM | < 1 nM | ~0.3 nM |  |  |  |  |  |
| Cyprus (Fab) (Fab, V domains shown, Tested in monovalent Fab format) VH: QVQLVESGGGLVKPGGSLRLSCAASGFTFSDYYMSWIRQAPGKGLEWVSYISSSGSTIYYADSVKGRFTISRDNAKNSLYLQMNSLRAEDTAVYYCARDGLRYFYGFDYWGQGTLVTVSS VL: QSVLTQPPSVSAAPGQKVTISCSGSSSNIGNNYVSWYQQLPGTAPKLLIYDNNKRPSGIPDRFSGSKSGTSATLGITGLQTEDEADYYCQAWVHYSLVHWVFGGGTKLTVLG |  |  |  |  |  |  |  |  |  | < 10 nM | ≥ 3.3 fold | no binding |  |  |
| Daniel (Fab) (Fab, V domains shown, Tested in monovalent Fab format) VH: QVQLVQSGAEVKKPGASVKVSCKASGYTFTSYYMHWVRQAPGQGLEWMGIINPSGGSTSYAQKFQGRVTMTRDTSTSTVYMELSSLRSEDTAVYYCAREGYTPGGSYTFDIWGQGTLVTVSS VL: QSVLTQPPSVSAAPGQKVTISCSGSSSNIGNNYVSWYQQLPGTAPKLLIYDNNKRPSGIPDRFSGSKSGTSATLGITGLQTEDEADYYCGSWDGFVSSYSVFGGGTKLTVLG |  |  |  |  |  |  |  |  |  | < 10 nM | ≥ 3.3 fold | no binding |  |  |
| Aali (IgG1) (antibody, V domains shown) VH: QVQLVESGGGLVKPGGSLRLSCAASGFTFSDHYISWIRQAPGKGLEWVSYISSSGSTTYYAESVKGRFTISRDNAKNSLYLQMNSLRAEDTAVYYCARTYAYRYDFDLWGQGTLVTVSS VL: QSVLTQPPSVSGAPGQRVTISCTGSSSNIGAGYDVHWYQQLPGTAPKLLIYGNSNRPSGVPDRFSGSKSGTSASLAITGLQAEDEADYYCQTWVHSYSTPVFGGGTKLTVLG |  |  | < 10 nM | no binding |  | > 10 nM | < 10 nM | < 1 nM | ~0.5 nM |  |  |  | < 0.5 nM |  |
| Aali (Fab) (Fab, V domains shown, Tested in monovalent Fab format; also called Aali Fab fragment) VH: QVQLVESGGGLVKPGGSLRLSCAASGFTFSDHYISWIRQAPGKGLEWVSYISSSGSTTYYAESVKGRFTISRDNAKNSLYLQMNSLRAEDTAVYYCARTYAYRYDFDLWGQGTLVTVSS VL: QSVLTQPPSVSGAPGQRVTISCTGSSSNIGAGYDVHWYQQLPGTAPKLLIYGNSNRPSGVPDRFSGSKSGTSASLAITGLQAEDEADYYCQTWVHSYSTPVFGGGTKLTVLG |  |  |  |  |  |  |  |  |  | < 10 nM | ≥ 3.3 fold | no binding |  | 66 nM |

Further lines, results first:

| EC50 [1] | EC50 [2] | EC50 [3] | binding result [4] | EC50 (read off the curve) [5] | EC50 [6] | EC50 [7] | EC50 [8] | EC50 (read off the curve) [9] | EC50 [10] | fold better EC50 than the best binder of the prior art [11] | binding result [12] | Kd [13] | Kd [14] | Binder |
| --- | --- | --- | --- | --- | --- | --- | --- | --- | --- | --- | --- | --- | --- | --- |
|  |  | > 10 nM | no binding |  | > 10 nM | < 10 nM | < 1 nM | ~0.3 nM |  |  |  |  |  | Fiwi (IgG1) (antibody, V domains shown) VH: EVQLVESGGGLVKPGGSLRLSCAASGFTFSNYWISWVRQAPGKGLEWVGRIKSKTYGGTTDYAEPVKGRFTISRDDSKNTLYLQMNSLKTEDTAVYYCARGRYPELGYFDLWGQGTLVTVSS VL: QSVLTQPPSVSAAPGQKVTISCSGSSSNIGNNYVSWYQQLPGTAPKLLIYDNNKRPSGIPDRFSGSKSGTSATLGITGLQTEDEADYYCGAWDSYLSVSFVFGGGTKLTVLG |
|  |  | < 10 nM | no binding |  | > 10 nM | < 10 nM | < 1 nM | ~0.3 nM |  |  |  |  |  | Daniel (IgG1) (antibody, V domains shown) VH: QVQLVQSGAEVKKPGASVKVSCKASGYTFTSYYMHWVRQAPGQGLEWMGIINPSGGSTSYAQKFQGRVTMTRDTSTSTVYMELSSLRSEDTAVYYCAREGYTPGGSYTFDIWGQGTLVTVSS VL: QSVLTQPPSVSAAPGQKVTISCSGSSSNIGNNYVSWYQQLPGTAPKLLIYDNNKRPSGIPDRFSGSKSGTSATLGITGLQTEDEADYYCGSWDGFVSSYSVFGGGTKLTVLG |
|  |  |  |  |  |  |  |  |  | > 10 nM | ≥ 3.3 fold | no binding |  |  | Fiwi (Fab) (Fab, V domains shown, Tested in monovalent Fab format) VH: EVQLVESGGGLVKPGGSLRLSCAASGFTFSNYWISWVRQAPGKGLEWVGRIKSKTYGGTTDYAEPVKGRFTISRDDSKNTLYLQMNSLKTEDTAVYYCARGRYPELGYFDLWGQGTLVTVSS VL: QSVLTQPPSVSAAPGQKVTISCSGSSSNIGNNYVSWYQQLPGTAPKLLIYDNNKRPSGIPDRFSGSKSGTSATLGITGLQTEDEADYYCGAWDSYLSVSFVFGGGTKLTVLG |
| < 10 nM | < 1 nM | > 10 nM | no binding | ~0.3 nM | > 10 nM |  |  |  |  |  |  |  |  | Elfu (IgG1) (antibody, V domains shown) VH: EVQLVQSGAEVKKPGESLKISCKGSGYSFTSYWISWVRQMPGKGLEWMGIIYPGTSYTRYSPSFQGQVTISADKSISTAYLQWSSLKASDTAMYYCARGYHLPYFDYWGQGTLVTVSS VL: QSVLTQPPSVSGAPGQRVTISCTGSSSNIGAGYDVHWYQQLPGTAPKLLIYGNSNRPSGVPDRFSGSKSGTSASLAITGLQAEDEADYYCQAYASPTRVVFGGGTKLTVLG |
